From patent US20120208291A1

Molecular target: acceptor complex of syntaxin linked to SNAP-25 (UniProt O16000)
Assay: KISMI single-molecule imaging

UniProt O16000, sequence (O16000 1-265, one chain of several): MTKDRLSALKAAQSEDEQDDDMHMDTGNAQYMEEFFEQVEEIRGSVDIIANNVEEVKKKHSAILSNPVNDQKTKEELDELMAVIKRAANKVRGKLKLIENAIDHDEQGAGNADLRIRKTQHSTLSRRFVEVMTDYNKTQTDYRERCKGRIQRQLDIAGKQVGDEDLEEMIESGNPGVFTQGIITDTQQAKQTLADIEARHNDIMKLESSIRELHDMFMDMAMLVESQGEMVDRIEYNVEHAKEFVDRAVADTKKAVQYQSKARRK

## synaptobrevin (from UniProt O02495 1-86)
  Kd: 1.7 µM
